In assay [1] the target is CsEd toxin from Centruroides sculpturatus venom (Centruroides sculpturatus). The assay can be described thus: SPR (Biacore X), toxin on CM5 chip, scFv injected, 25 C, Langmuir 1:1. On the technique in general: In SPR one partner is held on a chip, and binding of the other changes the refractive index at the surface.
In assay [2] the target is CsEM1a toxin from Centruroides sculpturatus venom (Centruroides sculpturatus). The description is as above.
For assay [3], the target named is Centruroides sculpturatus whole venom (toxic components CsEM1a and CsEd, ~10% of the venom). As to the kind of experiment: cell-based or functional assay.

In general, Kd refers to a measure of binding affinity in units of concentration. Low readings indicate a tighter complex, high ones a looser complex. As usually defined, the koff is the rate constant with which the complex falls apart. Low values mean a long-lived complex, high ones a short-lived complex. In general, kon refers to the rate constant with which the complex forms. Low values mean slow association, high ones fast association.

CsEM1a toxin from Centruroides sculpturatus venom (Centruroides sculpturatus), sequence (P56646 whole entry): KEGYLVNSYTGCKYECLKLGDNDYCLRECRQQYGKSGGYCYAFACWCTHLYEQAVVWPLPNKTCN
scFv 10FG2 (SEQ. ID. NO: 1), sequence (scFv): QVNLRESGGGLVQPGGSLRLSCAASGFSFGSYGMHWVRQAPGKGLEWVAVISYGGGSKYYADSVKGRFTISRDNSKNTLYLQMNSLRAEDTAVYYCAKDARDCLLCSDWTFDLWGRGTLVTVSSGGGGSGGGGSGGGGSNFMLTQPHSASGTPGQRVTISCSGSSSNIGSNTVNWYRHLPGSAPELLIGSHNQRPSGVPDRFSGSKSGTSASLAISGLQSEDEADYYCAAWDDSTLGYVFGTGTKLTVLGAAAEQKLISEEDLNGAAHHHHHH

In assay [1], scFv 10FG2 (SEQ. ID. NO: 1) came in with a Kd of 1.84 nM; a TR (min), residence time of 49 min; a koff of 0.00034 s⁻¹; a kon of 185000 M⁻¹ s⁻¹. Besides, in assay [2], the Kd was determined as 1.1 nM; the TR (min), residence time was determined as 63 min; the koff was found to be 0.000261 s⁻¹; the kon amounted to 237000 M⁻¹ s⁻¹. In assay [3], the Survivors/Total, mixing test, 2 LD50, molar ratio toxin:scFv 1:5 (survivors of 6 mice) stood at 6; the Survivors/Total, mixing test, 3 LD50, molar ratio toxin:scFv 1:3.3 (survivors of 6 mice) amounted to 6; the Survivors/Total, mixing test, 4 LD50, molar ratio toxin:scFv 1:2.5 (survivors of 6 mice) stood at 6; the Survivors/Total, mixing test, 5 LD50, molar ratio toxin:scFv 1:2 (survivors of 6 mice) was found to be 6. Also, the Survivors/total, mice injected with venom premixed with scFv, 2 LD50, molar ratio toxin:scFv 1:10 (survivors of 6 mice) in assay [3] was 6.

The values above are taken from US20240092879A1.
